In US6627739:
[ ]: non-standard residue; d: D form. Sta = CC(C)C[C@H](N)[C@@H](O)CC(=O)O

Columns and labels:
[1] = target: T1, β-secretase 46-452 (human, UniProt P56817 46-452); assay: binding to peptide-Sepharose affinity matrix
T1 construct: C-terminally truncated form lacking the transmembrane region
Experimental: The same fractions run under non-reducing conditions (FIG. 6B) provide evidence for disulfide cross-linked oligomers. When the anion exchange pool fractions 18–21 (see FIG. 6B) were treated with dithiothreitol (DTT) and re-chromatographed on a Mini Q column, then subjected to SDS-PAGE under non-reducing conditions, a single band running at about 70 kilodaltons was observed.
All manipulations were carried out at room temperature. 12.5 ml of 80% slurry of NHS-Sepharose (i.e. 10 ml packed volume; Pharmnacia, Piscataway, N.J.) was poured into a Bio-Rad EconoColumn (BioRad, Richmond, Calif.) and washed with 165 ml of ice-cold 1.0 mM HCl. When the bed was fully drained, the bottom of the column was closed off, and 5.0 ml of 7.0 mg/ml P10-P4'sta(D→V) peptide (dissolved in 0.1 M HEPES, pH 8.0) was added. The column was capped and incubated with rotation for 24 hours. After incubation, the column was allowed to drain, then washed with 8 ml of 1.0 M ethanolamine, pH 8.2. An additional 10 ml of the ethanolamine solution was added, and the column was again capped and incubated overnight with rotation. […]

[2] = target: T2, recombinant full-length human β-secretase (1-501) expressed from pCEK clone 27 / pCFβA2 in 293T or Cos A2 … (human, UniProt P56817 46-501); assay: affinity chromatography on peptide-Sepharose, extracts of transfected 293T and COS A2 cells
T2 construct: From 293T cells the N-terminus was mainly residue 46, with minor forms at 22 and 63; From Cos A2 cells it was 46 and 58; also called p501 β-secretase; full length clone 27
Experimental: The cell pellet was resuspended by homogenizing for 30 seconds using a handheld homogenizer (0.5 ml/pellet of approximately […] in extraction buffer consisting of 20 mM TRIS buffer, pH 7.5, 2 mM EDTA, 0.2% Triton X-100, plus protease inhibitors: 5 µg/ml E-64, 10 µg/ml pepstatin, 1 mM PMSF), centrifuged as maximum speed in a microfuge (40 minutes at 4 degrees C.). Pellets were suspended in original volume of extraction buffer, then stirred at 1 hour at 4 degrees C. with rotation, and centrifuted again in a microfuge at maximum speed for 40 minutes. The resulting supernatant was saved as the "extract." The extract was then diluted with 20 mM sodium acetate, pH 5.0,2 mM EDTA and 0.2% Triton X-100 (SP buffer A), and 5M NaCl was added to a final concentration of 60 mM NaCl. The pH of the solution was then adjusted to pH 5.0 with glacial acetic acid diluted 1:10 in water. Aliquots were saved ("SP load"). The SP load was passed through a 1 ml SP HiTrap column which was pre-washed with 5 ml SP buffer A, 5 ml SP buffer B (SP buffer A with 1 M NaCl) and 10 ml SP buffer A. An additional 2 ml of 5% SP buffer B was passed through the column to displace any remaining sample from the column. The pH of the SP flow-through was adjusted to pH 4.5 with 10× diluted acetic acid. This flow-through was then applied to a P10-P4'staD→V-Sepharose Affinity column, as described below. […]

T1 sequence (P56817 46-452 limits assumed): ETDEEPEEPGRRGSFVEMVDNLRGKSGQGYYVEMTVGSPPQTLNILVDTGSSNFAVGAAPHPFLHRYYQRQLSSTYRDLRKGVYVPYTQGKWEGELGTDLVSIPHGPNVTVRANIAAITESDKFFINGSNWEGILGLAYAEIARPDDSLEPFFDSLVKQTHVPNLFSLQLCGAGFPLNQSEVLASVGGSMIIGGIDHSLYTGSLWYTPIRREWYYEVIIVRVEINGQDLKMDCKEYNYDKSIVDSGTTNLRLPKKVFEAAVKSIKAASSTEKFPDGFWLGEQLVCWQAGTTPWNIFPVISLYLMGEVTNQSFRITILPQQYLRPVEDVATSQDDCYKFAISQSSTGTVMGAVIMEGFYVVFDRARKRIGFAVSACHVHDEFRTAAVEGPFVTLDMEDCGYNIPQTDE
T2 sequence (P56817 46-501 limits assumed): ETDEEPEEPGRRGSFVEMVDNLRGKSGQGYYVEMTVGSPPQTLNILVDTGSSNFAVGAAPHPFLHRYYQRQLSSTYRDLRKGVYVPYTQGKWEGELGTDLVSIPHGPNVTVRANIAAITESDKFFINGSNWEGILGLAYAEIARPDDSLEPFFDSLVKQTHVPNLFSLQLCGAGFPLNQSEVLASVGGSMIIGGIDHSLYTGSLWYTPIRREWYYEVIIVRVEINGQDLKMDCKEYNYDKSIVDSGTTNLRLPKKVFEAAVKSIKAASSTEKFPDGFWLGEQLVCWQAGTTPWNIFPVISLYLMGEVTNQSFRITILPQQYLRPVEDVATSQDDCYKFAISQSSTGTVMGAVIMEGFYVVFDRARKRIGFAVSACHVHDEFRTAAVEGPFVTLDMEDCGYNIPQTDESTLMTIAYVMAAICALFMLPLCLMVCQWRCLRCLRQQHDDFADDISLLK

B1: P10-P4′staD→V (NH2-KTEEISEVN[sta]VAEF-CO2H) (peptide)
peptide: H-KTEEISEVN[Sta]VAEF-OH
notes: also called P10-P4′(statine)D→V
[1]
  binding result: binds
[2]
  binding result: binds
